Assay results taken from the supplement of paper PMC9170038.

Tested on: MS2 coat protein
Experiment: apparent KD of MS2 coat protein; designed switch direction (-1 OFF switch, 1 ON switch): -1; higher = weaker reporter binding
Procedure, shortened: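 Designed RNA switches sharing common flanks were transcribed on Illumina chips by stalled E. coli RNA polymerase. They were titrated with SNAP-549-labelled MS2 coat protein, from 0.7 or 1.5 nM doubling to 3 µM, in Tris-HCl pH 7.5 buffer with KCl, MgCl2, BSA, DTT, tRNA and Tween-20. Titrations ran without input, with 200 uM small-molecule ligand, or with an oligonucleotide input. The apparent KD of each design is the median over its clusters, after curve-fitting of normalised cluster fluorescence.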

[1] = input ligand: microRNA oligo, concentration not stated
[2] = Eterna round: R95, input ligand: microRNA oligo, concentration not stated
[3] = Eterna round: R95, input ligand: FMN 200 uM
[4] = Eterna round: R95, input ligand: none

Sequence	apparent KD of MS2 coat protein (input ligand: FMN 200 uM)	apparent KD of MS2 coat protein (input ligand: none)	apparent KD of MS2 coat protein [2]	other results
GGAAAAAUAUAGGAUAUGGGAGGGAGGACCGAACCAGAAGGAUAGACAUGAGGAUCACCCAUGUAAAGAUCCUC [AK-MS2ROC-r4-exclusion6-6] (Eterna round: R97, puzzle: Exclusion 6)	0.377 µM	0.204 µM	–	–
UUUUUAUAUGAAGGAUAUACUUAACAUGAGGAUCACCCAUGUGGUGUUGUGAGUGAGUGAGUUUAGUAGAAGGUCAAUGAUUUU [JMF's solution 10] (Eterna round: R96, puzzle: Exclusion NG 2)	0.73 µM	0.345 µM	–	apparent KD of MS2 coat protein [1]: 0.326 µM
AAAAUUGUAGGAUAUUAGGCAGACAACAUGAGGAUCACCCAUGUCCGUGAUCUUAGGCACUGAGAAGGAUAAGCCU [Eternabot (Original) Solution 23] (Eterna round: R97, puzzle: Exclusion 5)	0.147 µM	0.159 µM	–	–
CGCGUAUGAGGAUAUGCAUAAAAGGGUGCACUGAGUCUGAGACAUGAGGAUCACCCAUGUAGAAGGCGUGCGCU [Beerteon] (puzzle: Exclusion 2)	–	–	0.0136 µM	–
AGUAACAGAGGAUAUACUGUUUUAUGUGUUUAUUGUUUUGAACAUGAGGAUCACCCAUGUAGAAGGCUGAAUAA [JMF 94] (puzzle: Exclusion 2)	–	–	0.0217 µM	–
UUUUAACAUGAGGAUCACCCAUGUGAGGAUAUCGAAAUUUAUAUUAAUAUUAUUAAUACGAGAAGGCACAUUUU [JMF 38] (puzzle: Exclusion 1)	–	–	0.0362 µM	–
GUACUAAAGCUUUGCUUUAGUCGUACAUGAGGAUCACCCAUGUAGGAUAUGGUAAGCAUAGCUUACUAGAAGGAUAGAGUGAUC [Mat - Exclusion NG 3 - Mod of JL - D66] (Eterna round: R96, puzzle: Exclusion NG 3)	0.285 µM	0.145 µM	–	apparent KD of MS2 coat protein [1]: 0.146 µM
UUUUAACAUGAGGAUCACCCAUGUGAGGAUAUCGAAAUUUAUAUUAAUAUUAAUUAUUCGAGAAGGCACAUUUU [JMF 29] (puzzle: Exclusion 1)	–	–	0.114 µM	–
GUAUCCGAGAAGGAUAUCAAUGGCCCGGACCACUGAGAAGGUCUCACAUGAGGAUCACCCAUGUCACAGGUGCA [Eternabot (Original) Solution 29] (Eterna round: R97, puzzle: Exclusion 6)	0.0741 µM	0.0703 µM	–	–
AAUAAAAGCGAGGAUAUCGUAUCGGAAACGAUACGAGAAGGCGUAACAUGAGGAUCACCCAUGUGUCCUCAAUA [Mat - Exclusion 6 - Eli Mod - D8] (Eterna round: R97, puzzle: Exclusion 6)	1.26 µM	0.13 µM	–	–
UAAUUGAUUAAUAAAUAAUACAUGAGGAUCACCCAUGUAGAUCCUACAUACCAUUUAAGUAGCUCGUCUUAUUAUUA [Sensor-V1 #62] (Eterna round: R97, puzzle: Sensor, turn-off variant 1)	0.217 µM	0.213 µM	–	–
ACUGGAGCAGGAUAUGCAUUCGUGCUUCGGCACGUAAGGUCACAUGAGGAUCACCCAUGUAGAAGGGCUCCAGU [E2/6-D1] (Eterna round: R97, puzzle: Exclusion 2)	0.0329 µM	0.0197 µM	–	–
AAUAAGGGAGGAUAUGCGGAACGGUUUGUUCUCAGUGAGGCACAUGAGGAUCACCCAUGUAGAAGGCCCGGCAA [Orinar] (puzzle: Exclusion 2)	–	–	0.013 µM	–
GACCAACGGGUUUACCUUUACAUGAGGAUCACCCAUGUCGCAAGCUUUUUCUCGGGUCCAAUCUUAUAAAUAUUAAU [Legedi] (puzzle: Sensor v3, turn-off variant 1)	–	–	0.314 µM	apparent KD of MS2 coat protein [3]: 0.144 µM; apparent KD of MS2 coat protein [4]: 0.179 µM
GCUUGUGCCCUAGGAUAUCGCCCAGCCAAUGGAUGAGAAGGAGGCGGGUGAAACAUGAGGAUCACCCAUGUAAACGCACAGGCG [Erdiusbi] (Eterna round: R96, puzzle: Exclusion NG 1)	0.189 µM	0.0219 µM	–	apparent KD of MS2 coat protein [1]: 0.018 µM
UUUGUUGUUGUGAGGAUAUCGUAGUUAUUUUGAAACGAGAAGGCACAUGAGGAUCACCCAUGUUUGUUGAUGGU [JR_BMOE4_Sub062] (puzzle: Brourd's mod of Exclusion 4)	–	–	0.0324 µM	–
ACUUGCUAUUUGCUCGUCUUAUUUUUGUUUAUUUACUAUACAUGAGGAUCACCCAUGUUAUAUUUAAGGGUGUGAUA [JR_SV3TOV2_Sub074] (puzzle: Sensor v3, turn-off variant 2)	–	–	0.334 µM	apparent KD of MS2 coat protein [3]: 0.27 µM; apparent KD of MS2 coat protein [4]: 0.259 µM
ACAGUUUUGCAAGGAUAUCGUUUUAGUUUAUUACGAGAAGGUGCUUUAGUUAUUUCUUUGGGUUGACAUGAGGAUCACCCAUGU [JR_ExcNG1_Sub057] (Eterna round: R96, puzzle: Exclusion NG 1)	0.136 µM	0.148 µM	–	apparent KD of MS2 coat protein [1]: 0.144 µM
GUCAUACAUGAGGAUCACCCAUGUAAGGAUAUGCUAGCGGUCGGAAGAAUGACUGCUAGCAGAAGGUACAUGAU [Mat - Mod of JL D83] (puzzle: Exclusion 1)	–	–	0.0625 µM	–
CGUGGCCAAGGAUAUGGGUAUCAUGACAUGAGGAUCACCCAUGUAUAGAGGAUCCAUAGCCCAGAAGGUGGUCCGG [Eternabot (L1) Solution 85] (Eterna round: R97, puzzle: Exclusion 5)	0.044 µM	0.017 µM	–	–
UAGAAGGUAGGAUAUACGAAUAAAUAGGGUAGUAAGAAGACACAUGAGGAUCACCCAUGUAGAAGGACCAAGAU [Mat - Exclusion 2 - Mod of my Tesla design - D33] (puzzle: Exclusion 2)	–	–	0.0194 µM	apparent KD of MS2 coat protein [3]: 0.0335 µM; apparent KD of MS2 coat protein [4]: 0.0206 µM
UGUGUGAGACAGGAUAUGCCGGUUGUGUUGCUGGUAGAAGGGUCUACAUGAGGAUCACCCAUGUGGCCGGUUGG [Ex6 #80] (Eterna round: R97, puzzle: Exclusion 6)	0.0191 µM	0.0173 µM	–	–
AAUAACAGAGGAUAUACUAUUUUAUGUGUUUGUUGUUUUAAACAUGAGGAUCACCCAUGUAGAAGGCUGAUUAA [JMF 46] (puzzle: Exclusion 2)	–	–	0.0331 µM	–
AAAAGAAGUGUUAGGAUAUGUGGAAGUAGAAAGACACAGAAGGGACAUGAGGAUCACCCAUGUGGCCAAAGAAC [Vecedies] (puzzle: Brourd's mod of Exclusion 4)	–	–	0.0156 µM	apparent KD of MS2 coat protein [3]: 0.0173 µM; apparent KD of MS2 coat protein [4]: 0.0155 µM
ACAUGAGGAUCACCCAUGUGAAAACAAUGGCUGACUAAGAGAUAGGAUAUAUGUGCAUAUCAAACAUAGAAGGGUCAUUACUGG [Deportation 88 - Jieux - Exclusion NG 3] (Eterna round: R96, puzzle: Exclusion NG 3)	0.0361 µM	0.0372 µM	–	apparent KD of MS2 coat protein [1]: 0.0253 µM
GCUGGUCGAGGAUAUACAUGAGGAUCACCCAUGUAGAUCAACCAGCGAUAGCUGGAAUGUAGAAGGUGACCAGC [E3/5-B1] (Eterna round: R97, puzzle: Exclusion 3)	0.0219 µM	0.0159 µM	–	–
AAUAACUUAGGAUAUACAUGAGGAUCACCCAUGUCCCACCCGUUACCCAUGACCAUAUGUAGAAGGAAGAAGAA [Exy#8] (Eterna round: R97, puzzle: Exclusion 3)	0.028 µM	0.0357 µM	–	–
